Results published in article PMC13678254, “Exploring the bistable equilibrium of methylated CpG DNA recognition by the MBD2 protein”.

Biological target: MBD2 MBD S189A (Homo sapiens, UniProt Q9UBB5 150-214, S189A)
Assay: fluorescence polarization; 3 mM Mg2+; 10 nM DNA; FP: 10 mM HEPES pH 7.5, 50 mM NaCl, 3 mM MgCl2, 0.1 mM EDTA, 1 mM DTT, 0.02% sodium azide; 10 nM 3'FAM DNA; temperature not stated
Details: protein: recombinant; tags: thioredoxin/His tag (modified pET32a) removed by TEV protease; label: 3'FAM on forward strand; blunt

Chain of MBD2 MBD S189A (Q9UBB5 150-214 S189A): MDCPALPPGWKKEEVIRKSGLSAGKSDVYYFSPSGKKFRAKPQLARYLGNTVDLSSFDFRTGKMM

B1: 17-bp symmetrically methylated mCpG DNA, 3'FAM (dsDNA)
DNA 1: GAGGCGCTCGGCGGCAG
DNA 2: CTGCCGCCGAGCGCCTC
modifications: 5-methylcytosine at position 9 of strand 1 and at position 8 of strand 2 (symmetric mCpG)
For B1, the Kd was 11.5 ± 0.6 µM.
